# Test results as given in patent US20250339531A1 (FRED HUTCHINSON CANCER CENTER, published 2025).
# T1: Signal transducer and activator of transcription 1-alpha/beta (Homo sapiens, UniProt P42224 2-750)
# T1 construct: also called STAT1
# T1 sequence (looked up): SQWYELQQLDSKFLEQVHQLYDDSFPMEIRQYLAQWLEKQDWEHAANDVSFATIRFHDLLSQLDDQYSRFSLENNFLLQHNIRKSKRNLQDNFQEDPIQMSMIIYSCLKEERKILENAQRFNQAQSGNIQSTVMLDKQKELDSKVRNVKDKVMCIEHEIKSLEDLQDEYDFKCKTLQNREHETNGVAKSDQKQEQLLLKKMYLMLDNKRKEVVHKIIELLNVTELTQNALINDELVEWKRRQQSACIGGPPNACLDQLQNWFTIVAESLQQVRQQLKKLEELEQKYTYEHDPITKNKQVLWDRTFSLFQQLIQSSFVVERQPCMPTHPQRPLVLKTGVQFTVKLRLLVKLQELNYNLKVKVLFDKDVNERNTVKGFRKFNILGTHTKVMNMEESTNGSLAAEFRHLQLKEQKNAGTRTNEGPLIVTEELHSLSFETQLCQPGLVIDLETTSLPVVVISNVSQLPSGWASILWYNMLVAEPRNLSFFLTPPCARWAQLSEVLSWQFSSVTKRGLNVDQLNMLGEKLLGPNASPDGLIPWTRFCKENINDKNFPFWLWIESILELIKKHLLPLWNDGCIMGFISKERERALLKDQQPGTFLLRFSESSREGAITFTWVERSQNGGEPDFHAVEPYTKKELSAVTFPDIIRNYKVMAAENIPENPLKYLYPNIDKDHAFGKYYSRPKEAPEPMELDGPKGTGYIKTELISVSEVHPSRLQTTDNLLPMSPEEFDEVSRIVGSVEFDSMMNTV
# Key:
# Test in all cases: anti-FLAG co-IP LC-MS, exp 4, +Dox +IFNG
# [1] = molecular target: T2, Immunoglobulin kappa variable 2-40 (Homo sapiens)
# T2 construct: also called IGKV2-40
# [2] = molecular target: T3, Nuclease-sensitive element-binding protein 1 (Fragment) (Homo sapiens, UniProt P67809 2-324)
# T3 construct: also called YBX1
# [3] = molecular target: T4, Polyadenylate-binding protein 1 (Homo sapiens, UniProt P11940 1-636)
# T4 construct: also called PABPC1
# [4] = molecular target: T1, Signal transducer and activator of …
# [5] = molecular target: T5, cDNA FLJ56329, highly similar to Myosin light polypeptide 6 (Homo sapiens)
# T5 construct: also called MYL6
# T3 sequence (P67809 2-324 limits assumed): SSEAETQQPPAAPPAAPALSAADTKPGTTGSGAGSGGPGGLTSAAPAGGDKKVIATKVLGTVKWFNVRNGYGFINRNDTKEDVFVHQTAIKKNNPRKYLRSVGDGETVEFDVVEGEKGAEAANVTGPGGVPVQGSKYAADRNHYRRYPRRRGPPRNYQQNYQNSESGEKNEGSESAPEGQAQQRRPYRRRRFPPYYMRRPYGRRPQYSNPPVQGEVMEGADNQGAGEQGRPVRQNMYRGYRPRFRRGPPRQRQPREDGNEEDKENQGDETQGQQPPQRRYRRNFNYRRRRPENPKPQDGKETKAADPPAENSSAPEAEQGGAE
# T2 sequence (A0A087WW87 20-121): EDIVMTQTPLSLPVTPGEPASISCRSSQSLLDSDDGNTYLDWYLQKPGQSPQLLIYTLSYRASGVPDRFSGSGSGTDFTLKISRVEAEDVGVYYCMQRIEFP
# T4 sequence (P11940 whole entry): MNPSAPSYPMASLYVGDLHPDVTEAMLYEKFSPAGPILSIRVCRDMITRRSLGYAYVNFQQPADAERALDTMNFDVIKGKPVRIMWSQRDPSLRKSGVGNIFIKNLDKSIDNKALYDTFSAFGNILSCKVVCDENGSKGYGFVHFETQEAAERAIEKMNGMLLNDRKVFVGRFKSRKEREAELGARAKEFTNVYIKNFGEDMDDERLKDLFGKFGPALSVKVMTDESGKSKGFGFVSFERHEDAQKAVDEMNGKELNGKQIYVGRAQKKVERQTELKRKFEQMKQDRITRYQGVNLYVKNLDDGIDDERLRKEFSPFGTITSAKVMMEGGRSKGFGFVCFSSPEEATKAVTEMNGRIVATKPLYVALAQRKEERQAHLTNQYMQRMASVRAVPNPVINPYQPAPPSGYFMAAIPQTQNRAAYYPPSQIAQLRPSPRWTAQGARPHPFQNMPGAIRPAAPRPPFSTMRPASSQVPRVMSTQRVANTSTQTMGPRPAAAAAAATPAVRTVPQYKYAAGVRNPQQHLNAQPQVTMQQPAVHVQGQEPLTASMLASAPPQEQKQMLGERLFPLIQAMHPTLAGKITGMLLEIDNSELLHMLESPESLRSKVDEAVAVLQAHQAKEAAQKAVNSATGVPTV
binder,measurement,setting,value
"i3XFLAG-NLS-CTDaa154-424 (other, Doxycycline-induced in MB135 cells for co-IP; also called longCTD; iDUX4-CTD) MDYKDHDGDYKDHDIDYKDDDDKPPKRMRREPKKKRKVGRAPAQAGGLCSAAPGGGHPAPSWVAFAHTGAWGTGLPAPHVPCAPGALPQGAFVSQAARAAPALQPSQAAPAEGISQPAPARGDFAYAAPAPPDGALSHPQAPRWPPHPGKSREDRDPQRDGLPGPCAVAQPGPAQAGPQGQGVLAPPTSQGSPWWGWGRGPQVAGAAWEPQAGAAPPPQPAPPDASASARQGQMQGIPAPSQALQEPAPWSALPCGLLLDELLASPEFLQQAQPLLETEAPGELEASEEAASLEAPLSEEEYRALLEEL",PSMs,[1],5 PSMs
same,PSMs,[2],7 PSMs
same,PSMs,[3],3 PSMs
same,PSMs,[4],19 PSMs
same,PSMs,[5],5 PSMs
